{"source": "paper PMC5383425", "about": "“Differential CLE peptide perception by plant receptors implicated from structural and functional analyses of TDIF-TDR interactions” (PLoS ONE, 2017)", "assay_in_all_cases": "ITC; 0.5–1 mM peptide titrated into 10–40 μM ecdTDR; 25°C; 10 mM sodium citrate, 100 mM NaCl, pH 5.5; fitted to one set of binding sites; MicroCal Auto-iTC200", "conditions_in_all_cases": "both partners purified", "key": {"[1]": {"target": "T1, ecdTDR R138E mutant (Arabidopsis thaliana, UniProt Q9FII5 30-642, R138E)", "T1 construct": "TDR/PXY of A. thaliana, extracellular domain, residues 30-642; source: High Five insect cells (baculovirus), secreted, purified as the wild type (Ni-NTA, size-exclusion chromatography)", "T1 sequence (looked up)": "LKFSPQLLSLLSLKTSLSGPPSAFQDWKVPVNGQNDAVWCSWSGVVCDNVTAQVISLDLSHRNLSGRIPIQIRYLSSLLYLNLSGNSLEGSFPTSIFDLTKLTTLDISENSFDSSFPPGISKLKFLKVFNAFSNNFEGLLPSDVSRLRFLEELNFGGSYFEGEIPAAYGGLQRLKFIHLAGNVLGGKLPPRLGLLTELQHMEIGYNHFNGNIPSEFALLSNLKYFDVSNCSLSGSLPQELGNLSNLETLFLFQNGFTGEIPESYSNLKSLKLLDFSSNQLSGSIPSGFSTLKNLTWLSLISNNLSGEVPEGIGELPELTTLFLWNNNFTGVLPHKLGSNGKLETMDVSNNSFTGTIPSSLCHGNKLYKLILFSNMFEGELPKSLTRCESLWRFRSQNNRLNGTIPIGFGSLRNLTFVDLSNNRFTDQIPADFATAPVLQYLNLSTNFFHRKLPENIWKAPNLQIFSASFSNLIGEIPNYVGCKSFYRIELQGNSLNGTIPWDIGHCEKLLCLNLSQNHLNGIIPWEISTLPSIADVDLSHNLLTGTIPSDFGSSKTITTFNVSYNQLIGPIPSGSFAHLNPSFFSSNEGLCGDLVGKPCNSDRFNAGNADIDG"}, "[2]": {"target": "T2, ecdTDR W353A mutant (Arabidopsis thaliana, UniProt Q9FII5 30-642, W353A)", "T2 construct": "TDR/PXY of A. thaliana, extracellular domain, residues 30-642; source: High Five insect cells (baculovirus), secreted, purified as the wild type (Ni-NTA, size-exclusion chromatography)", "T2 sequence (looked up)": "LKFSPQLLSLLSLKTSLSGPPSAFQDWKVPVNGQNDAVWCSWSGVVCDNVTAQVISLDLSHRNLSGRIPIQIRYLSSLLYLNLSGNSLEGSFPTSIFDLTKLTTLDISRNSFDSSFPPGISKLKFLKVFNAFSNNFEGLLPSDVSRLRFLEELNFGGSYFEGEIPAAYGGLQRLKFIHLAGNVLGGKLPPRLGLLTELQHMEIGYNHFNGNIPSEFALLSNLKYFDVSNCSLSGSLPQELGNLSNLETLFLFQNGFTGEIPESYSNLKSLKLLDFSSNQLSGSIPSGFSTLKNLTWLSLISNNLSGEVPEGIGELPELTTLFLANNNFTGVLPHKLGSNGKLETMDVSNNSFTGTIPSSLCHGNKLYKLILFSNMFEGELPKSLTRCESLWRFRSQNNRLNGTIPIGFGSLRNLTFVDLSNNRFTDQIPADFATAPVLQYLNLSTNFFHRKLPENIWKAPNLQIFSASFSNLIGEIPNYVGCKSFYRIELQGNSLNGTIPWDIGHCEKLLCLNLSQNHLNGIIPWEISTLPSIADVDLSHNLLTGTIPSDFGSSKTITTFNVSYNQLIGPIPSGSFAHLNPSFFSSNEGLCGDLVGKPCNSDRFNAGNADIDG"}, "[3]": {"target": "T3, ecdTDR R423A mutant (Arabidopsis thaliana, UniProt Q9FII5 30-642, R423A)", "T3 construct": "TDR/PXY of A. thaliana, extracellular domain, residues 30-642; source: High Five insect cells (baculovirus), secreted, purified as the wild type (Ni-NTA, size-exclusion chromatography)", "T3 sequence (looked up)": "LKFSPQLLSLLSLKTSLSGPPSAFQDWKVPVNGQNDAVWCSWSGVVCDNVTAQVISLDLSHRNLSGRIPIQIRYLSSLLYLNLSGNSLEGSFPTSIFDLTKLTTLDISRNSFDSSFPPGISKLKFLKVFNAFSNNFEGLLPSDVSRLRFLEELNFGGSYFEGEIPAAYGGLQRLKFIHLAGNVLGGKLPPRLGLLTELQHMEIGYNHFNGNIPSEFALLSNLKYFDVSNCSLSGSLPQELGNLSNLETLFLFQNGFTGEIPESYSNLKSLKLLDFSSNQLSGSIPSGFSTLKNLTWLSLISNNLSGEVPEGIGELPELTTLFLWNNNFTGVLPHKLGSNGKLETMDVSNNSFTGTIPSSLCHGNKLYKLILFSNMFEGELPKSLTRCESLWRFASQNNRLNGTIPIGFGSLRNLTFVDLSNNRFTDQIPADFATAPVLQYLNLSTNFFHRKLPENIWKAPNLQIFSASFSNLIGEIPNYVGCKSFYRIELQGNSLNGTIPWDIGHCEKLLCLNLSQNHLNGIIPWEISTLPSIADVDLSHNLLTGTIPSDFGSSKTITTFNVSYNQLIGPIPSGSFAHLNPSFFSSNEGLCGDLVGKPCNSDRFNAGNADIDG"}, "[4]": {"target": "T4, ecdTDR F279 alanine mutant (Arabidopsis thaliana, UniProt Q9FII5 30-642, alanine substitution of F279)", "T4 construct": "TDR/PXY of A. thaliana, extracellular domain, residues 30-642; The text says only 'mutational analyses' of F279; source: High Five insect cells (baculovirus), secreted, purified as the wild type (Ni-NTA, size-exclusion chromatography)", "T4 sequence (looked up)": "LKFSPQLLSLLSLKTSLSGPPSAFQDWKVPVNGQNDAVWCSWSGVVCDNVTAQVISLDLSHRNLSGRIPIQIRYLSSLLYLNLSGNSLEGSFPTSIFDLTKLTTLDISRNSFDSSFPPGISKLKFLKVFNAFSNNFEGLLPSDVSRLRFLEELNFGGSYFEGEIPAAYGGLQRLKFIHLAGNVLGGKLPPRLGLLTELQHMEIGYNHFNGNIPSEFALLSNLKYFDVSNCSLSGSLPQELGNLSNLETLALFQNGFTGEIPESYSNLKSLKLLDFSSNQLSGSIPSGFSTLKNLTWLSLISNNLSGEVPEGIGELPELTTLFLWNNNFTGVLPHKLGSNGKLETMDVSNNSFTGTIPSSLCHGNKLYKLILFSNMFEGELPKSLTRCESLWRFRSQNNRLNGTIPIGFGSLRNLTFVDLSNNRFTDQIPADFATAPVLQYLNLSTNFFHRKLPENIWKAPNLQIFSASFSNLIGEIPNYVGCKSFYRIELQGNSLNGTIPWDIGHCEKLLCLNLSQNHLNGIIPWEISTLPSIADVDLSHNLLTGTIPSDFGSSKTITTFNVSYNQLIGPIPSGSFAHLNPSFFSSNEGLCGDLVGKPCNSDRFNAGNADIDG"}}, "note": "Square brackets hold non-standard residues; d marks the D form. Ends that are not written are not given here. Hyp = O=C(O)[C@@H]1C[C@@H](O)CN1", "data": [{"binder": "HEV[Hyp]SG[Hyp]NPISN (TDIF, the 12-residue CLE peptide processed from CLE41 and CLE44 of A. thaliana; printed as HEV(Hyp)SG(Hyp)NPISN; numbers count on: the 12-residue peptide; CLE44 encodes the same peptide; also called wild type TDIF; wtTDIF; source: synthetic peptide (peptide 2.0))", "note": "[Tracheary Element Differentiation Inhibitory Factor (TDIF) peptide]", "values": [{"measurement": "binding result", "setting": "[1]", "result": "binds"}, {"measurement": "fold lower binding than wild-type ecdTDR", "setting": "[2]", "result": 8.4, "unit": "fold"}, {"measurement": "binding result", "setting": "[3]", "result": "binds"}, {"measurement": "binding result", "setting": "[4]", "result": "binds"}]}]}
